Results taken from patent US20160002331A1 (Pfizer, published 2016).
Where a chain is given by its changes, count along the chain named. Numbers in names are those of the source. Where “and” joins values, the source holds several entries; their conditions need not be identical. Identical values can stand only once. Each block holds one binder with its values, some of them ahead of it.

How the values were obtained:
[1] = molecular target: T1, full-length human Notch1 expressed on the cell surface (human, UniProt P46531 19-2555); test: cell-based or functional assay
[2] = molecular target: Notch1 receptor with L1575P mutation (HPB-ALL cells) (UniProt P46531 19-2555, limits assumed); test: cell-based or functional assay
[3] = molecular target: T1, full-length human Notch1 expressed on …; test: cell-based or functional assay; remark: listed apart in the source
[4] = molecular target: T2, human Notch1 NRR_Avi_His recombinant protein (human, UniProt P46531 1434-1737); test: SPR (Biacore T100), ratio of KD to that of rat 438-hIgG1
T2 construct: Secreted from CHO-PACE cells; cleaved at S1 into an N-terminal ~26 kDa half (LNR-A, B, C, HD1) and a C-terminal ~12 kDa half (HD2 and tag) that stay associated non-covalently; written here as one chain; also called recombinant human Notch1 NRR; human Notch1 NRR immunogen
T2 sequence: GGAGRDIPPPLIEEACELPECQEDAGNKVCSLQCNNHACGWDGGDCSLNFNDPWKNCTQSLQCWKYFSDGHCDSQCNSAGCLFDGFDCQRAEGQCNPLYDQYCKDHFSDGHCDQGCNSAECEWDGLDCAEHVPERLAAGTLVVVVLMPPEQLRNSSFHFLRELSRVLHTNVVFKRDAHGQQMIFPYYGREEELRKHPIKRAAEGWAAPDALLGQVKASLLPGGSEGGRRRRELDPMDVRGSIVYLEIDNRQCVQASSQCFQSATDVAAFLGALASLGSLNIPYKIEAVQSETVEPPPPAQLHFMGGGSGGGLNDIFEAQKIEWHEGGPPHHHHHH
Procedure: (§1) The kinetic constants of the anti-Notch1 NRR interactions were determined by surface plasmon resonance (Biacore® T100, Biacore Inc., Piscataway, N.J.). Flow cells of a CM5 chip were immobilized with approximately 10,000 Resonance Unit (RU) of anti-human IgG-Fc (Biacore®) in 10 mM Glycine, pH 5.0 at 10 μl/min for 600 seconds. […] Association of four concentrations of human Notch1 NRR_Avi_His recombinant protein (from 3.7-100 nM) and a zero concentration (running buffer) at 100 μl/min were recorded for 3 minutes in TBS with 1 mM CaCl₂. Dissociation of the complexes was measured for 10 minutes. The surface of the chip was regenerated by injecting 3M MgCl₂ with 3 mM EGTA for 60 seconds at 10 μl/min. Curves obtained after subtraction of the reference and buffer signals were fitted to a 1:1 Langmuir binding model with Biacore® T100 Evaluation Software (Biacore®).

[5] = molecular target: T2, human Notch1 NRR_Avi_His recombinant …; test: competition ELISA on coated human Notch1 NRR_Avi_His; competitor 0.8 nM biotinylated rat 438
Procedure: (§2) In a similar manner as described for recombinant protein or cell based ELISAs, 96 well cell culture plates were either coated with Notch1 NRR-Avi_His protein (hi-bound co-Star plates), or seeded with full length Notch1 expressing U-2 OS cells (cell culture plate, Co-star), respectively.
(§3) After incubation for 2 hours, the plates were washed, as described above, and HRP-conjugated streptavidin (Southern Biotech) diluted 1:5000 in blocking buffer was applied. Incubation with streptavidin was allowed for 30 min before the plates were washed again and developed with TMB solution for 10 minutes. Developing reaction was stopped by adding 0.18M H₂SO₄ and absorbance at 450 nm was measured. Data plotting and analyses were performed with Microsoft Excel and Graphpad-Prizm software.

[6] = molecular target: T2, human Notch1 NRR_Avi_His recombinant …; test: SPR (Biacore T100), antibody captured by anti-human IgG-Fc, NRR_Avi_His as analyte, 1:1 Langmuir model
Procedure: as §1

[7] = molecular target: T1, full-length human Notch1 expressed on …; test: competition ELISA on U-2 OS cells expressing full-length human Notch1; competitor 0.8 nM biotinylated rat 438
Procedure: as §2, §3

[8] = molecular target: T1, full-length human Notch1 expressed on …; test: cell-based ELISA, U-2 OS cells expressing full-length human Notch1
Procedure: (§4) Supernatants from clones displaying positive binding to immunogens in recombinant Notch1 NRR based ELISAs described above were then screened for cell surface Notch1 binding in a cell-based ELISA. U-2 OS cells stably overexpressing human or mouse full length Notch1 protein on cell surface were plated at 50,000 cells/well in 96 well plates (white opaque, BD/VWR) the day before ELISA assay. On the day of the ELISA, culture media were removed from wells and serially diluted (1:3 in blocking buffer) antibody solutions or hybridoma culture supernatants were applied to the plate. Plates were incubated at room temperature for 2 hours before being washed with PBS-Mg/Ca. HRP-conjugated secondary antibody was then applied and incubated with cells for 1 hour as described above for recombinant protein ELISA. Plates were washed with PBS-Mg/Ca before being developed with Pico-Chemiluminescent developing kit (Thermal Scientific), and chemiluminescence measurements were performed per manufacturer's instructions. Data plotting and analyses were performed with Microsoft Excel and Graphpad-Prizm software.

[9] = molecular target: T3, full-length mouse Notch1 expressed on the cell surface of U-2 OS cells (mouse, UniProt Q01705 19-2531); test: cell-based ELISA, U-2 OS cells expressing full-length mouse Notch1
T3 construct: whole, on cells; also called murine Notch1
Procedure: as §4

[10] = molecular target: T3, full-length mouse Notch1 expressed on …; test: cell-based or functional assay

T1 sequence (P46531 19-2555): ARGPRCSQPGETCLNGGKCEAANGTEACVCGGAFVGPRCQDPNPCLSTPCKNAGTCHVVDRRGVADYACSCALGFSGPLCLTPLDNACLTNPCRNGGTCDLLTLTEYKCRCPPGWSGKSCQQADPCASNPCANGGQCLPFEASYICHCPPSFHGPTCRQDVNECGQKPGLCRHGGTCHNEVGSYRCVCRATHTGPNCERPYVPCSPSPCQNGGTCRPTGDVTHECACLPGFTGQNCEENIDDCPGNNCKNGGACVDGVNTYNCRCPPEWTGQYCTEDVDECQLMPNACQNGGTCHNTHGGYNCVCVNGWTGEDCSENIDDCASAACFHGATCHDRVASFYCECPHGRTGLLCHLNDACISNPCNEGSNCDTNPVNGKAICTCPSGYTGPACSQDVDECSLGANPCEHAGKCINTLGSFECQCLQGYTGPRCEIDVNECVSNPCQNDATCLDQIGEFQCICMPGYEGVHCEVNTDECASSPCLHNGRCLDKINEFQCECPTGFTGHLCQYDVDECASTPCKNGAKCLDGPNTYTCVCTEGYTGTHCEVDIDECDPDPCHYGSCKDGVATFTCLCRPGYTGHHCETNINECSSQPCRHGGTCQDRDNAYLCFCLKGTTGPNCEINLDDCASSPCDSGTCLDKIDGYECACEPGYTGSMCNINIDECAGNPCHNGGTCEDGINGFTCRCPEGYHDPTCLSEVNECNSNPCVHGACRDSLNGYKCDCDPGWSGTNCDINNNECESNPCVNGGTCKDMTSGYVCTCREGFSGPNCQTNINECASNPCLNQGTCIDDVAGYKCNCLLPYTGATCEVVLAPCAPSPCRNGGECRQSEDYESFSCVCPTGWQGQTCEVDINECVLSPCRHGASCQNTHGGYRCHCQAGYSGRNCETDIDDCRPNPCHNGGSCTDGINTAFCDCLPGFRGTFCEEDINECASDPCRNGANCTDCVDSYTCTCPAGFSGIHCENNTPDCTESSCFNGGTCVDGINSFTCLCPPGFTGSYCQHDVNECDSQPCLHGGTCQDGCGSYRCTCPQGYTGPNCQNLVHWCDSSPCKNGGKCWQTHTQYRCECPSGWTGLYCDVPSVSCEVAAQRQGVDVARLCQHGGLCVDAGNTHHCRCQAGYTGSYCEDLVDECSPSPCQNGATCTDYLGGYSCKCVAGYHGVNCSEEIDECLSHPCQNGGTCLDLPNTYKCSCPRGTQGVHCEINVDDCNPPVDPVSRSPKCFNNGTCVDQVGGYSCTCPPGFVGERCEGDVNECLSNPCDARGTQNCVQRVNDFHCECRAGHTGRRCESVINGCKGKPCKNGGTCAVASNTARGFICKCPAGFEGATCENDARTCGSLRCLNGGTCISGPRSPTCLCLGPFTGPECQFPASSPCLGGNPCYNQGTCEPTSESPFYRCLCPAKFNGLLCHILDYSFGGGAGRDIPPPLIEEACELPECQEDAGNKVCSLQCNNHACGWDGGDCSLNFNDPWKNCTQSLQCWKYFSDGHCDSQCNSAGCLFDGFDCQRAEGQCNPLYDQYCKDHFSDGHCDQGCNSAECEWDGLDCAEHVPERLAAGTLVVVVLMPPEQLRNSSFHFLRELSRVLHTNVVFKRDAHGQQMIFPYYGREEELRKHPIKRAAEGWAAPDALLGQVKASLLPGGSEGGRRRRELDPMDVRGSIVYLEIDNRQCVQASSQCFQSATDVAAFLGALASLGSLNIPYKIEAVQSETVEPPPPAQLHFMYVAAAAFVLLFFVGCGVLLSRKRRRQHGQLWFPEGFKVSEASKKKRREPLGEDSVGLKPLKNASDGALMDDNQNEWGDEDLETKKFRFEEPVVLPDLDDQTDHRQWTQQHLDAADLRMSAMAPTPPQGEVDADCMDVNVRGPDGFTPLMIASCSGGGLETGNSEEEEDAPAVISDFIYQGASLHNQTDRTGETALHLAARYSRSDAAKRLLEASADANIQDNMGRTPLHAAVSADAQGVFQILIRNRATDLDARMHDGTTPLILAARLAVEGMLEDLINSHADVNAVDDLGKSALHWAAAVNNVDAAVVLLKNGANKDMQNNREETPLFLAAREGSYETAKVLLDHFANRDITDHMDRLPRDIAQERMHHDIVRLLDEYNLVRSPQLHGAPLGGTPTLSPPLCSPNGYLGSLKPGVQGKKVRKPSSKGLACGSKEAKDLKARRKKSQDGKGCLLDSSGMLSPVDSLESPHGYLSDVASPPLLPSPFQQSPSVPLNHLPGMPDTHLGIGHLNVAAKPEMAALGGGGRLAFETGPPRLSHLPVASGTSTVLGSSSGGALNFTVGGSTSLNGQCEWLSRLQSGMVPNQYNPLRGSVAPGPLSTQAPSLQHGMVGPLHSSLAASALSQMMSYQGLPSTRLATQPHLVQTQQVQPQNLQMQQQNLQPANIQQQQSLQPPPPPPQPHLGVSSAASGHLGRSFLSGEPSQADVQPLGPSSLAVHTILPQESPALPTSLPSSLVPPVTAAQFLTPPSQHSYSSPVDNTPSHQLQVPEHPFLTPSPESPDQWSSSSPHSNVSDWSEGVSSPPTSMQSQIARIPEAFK
T3 sequence (Q01705 19-2531): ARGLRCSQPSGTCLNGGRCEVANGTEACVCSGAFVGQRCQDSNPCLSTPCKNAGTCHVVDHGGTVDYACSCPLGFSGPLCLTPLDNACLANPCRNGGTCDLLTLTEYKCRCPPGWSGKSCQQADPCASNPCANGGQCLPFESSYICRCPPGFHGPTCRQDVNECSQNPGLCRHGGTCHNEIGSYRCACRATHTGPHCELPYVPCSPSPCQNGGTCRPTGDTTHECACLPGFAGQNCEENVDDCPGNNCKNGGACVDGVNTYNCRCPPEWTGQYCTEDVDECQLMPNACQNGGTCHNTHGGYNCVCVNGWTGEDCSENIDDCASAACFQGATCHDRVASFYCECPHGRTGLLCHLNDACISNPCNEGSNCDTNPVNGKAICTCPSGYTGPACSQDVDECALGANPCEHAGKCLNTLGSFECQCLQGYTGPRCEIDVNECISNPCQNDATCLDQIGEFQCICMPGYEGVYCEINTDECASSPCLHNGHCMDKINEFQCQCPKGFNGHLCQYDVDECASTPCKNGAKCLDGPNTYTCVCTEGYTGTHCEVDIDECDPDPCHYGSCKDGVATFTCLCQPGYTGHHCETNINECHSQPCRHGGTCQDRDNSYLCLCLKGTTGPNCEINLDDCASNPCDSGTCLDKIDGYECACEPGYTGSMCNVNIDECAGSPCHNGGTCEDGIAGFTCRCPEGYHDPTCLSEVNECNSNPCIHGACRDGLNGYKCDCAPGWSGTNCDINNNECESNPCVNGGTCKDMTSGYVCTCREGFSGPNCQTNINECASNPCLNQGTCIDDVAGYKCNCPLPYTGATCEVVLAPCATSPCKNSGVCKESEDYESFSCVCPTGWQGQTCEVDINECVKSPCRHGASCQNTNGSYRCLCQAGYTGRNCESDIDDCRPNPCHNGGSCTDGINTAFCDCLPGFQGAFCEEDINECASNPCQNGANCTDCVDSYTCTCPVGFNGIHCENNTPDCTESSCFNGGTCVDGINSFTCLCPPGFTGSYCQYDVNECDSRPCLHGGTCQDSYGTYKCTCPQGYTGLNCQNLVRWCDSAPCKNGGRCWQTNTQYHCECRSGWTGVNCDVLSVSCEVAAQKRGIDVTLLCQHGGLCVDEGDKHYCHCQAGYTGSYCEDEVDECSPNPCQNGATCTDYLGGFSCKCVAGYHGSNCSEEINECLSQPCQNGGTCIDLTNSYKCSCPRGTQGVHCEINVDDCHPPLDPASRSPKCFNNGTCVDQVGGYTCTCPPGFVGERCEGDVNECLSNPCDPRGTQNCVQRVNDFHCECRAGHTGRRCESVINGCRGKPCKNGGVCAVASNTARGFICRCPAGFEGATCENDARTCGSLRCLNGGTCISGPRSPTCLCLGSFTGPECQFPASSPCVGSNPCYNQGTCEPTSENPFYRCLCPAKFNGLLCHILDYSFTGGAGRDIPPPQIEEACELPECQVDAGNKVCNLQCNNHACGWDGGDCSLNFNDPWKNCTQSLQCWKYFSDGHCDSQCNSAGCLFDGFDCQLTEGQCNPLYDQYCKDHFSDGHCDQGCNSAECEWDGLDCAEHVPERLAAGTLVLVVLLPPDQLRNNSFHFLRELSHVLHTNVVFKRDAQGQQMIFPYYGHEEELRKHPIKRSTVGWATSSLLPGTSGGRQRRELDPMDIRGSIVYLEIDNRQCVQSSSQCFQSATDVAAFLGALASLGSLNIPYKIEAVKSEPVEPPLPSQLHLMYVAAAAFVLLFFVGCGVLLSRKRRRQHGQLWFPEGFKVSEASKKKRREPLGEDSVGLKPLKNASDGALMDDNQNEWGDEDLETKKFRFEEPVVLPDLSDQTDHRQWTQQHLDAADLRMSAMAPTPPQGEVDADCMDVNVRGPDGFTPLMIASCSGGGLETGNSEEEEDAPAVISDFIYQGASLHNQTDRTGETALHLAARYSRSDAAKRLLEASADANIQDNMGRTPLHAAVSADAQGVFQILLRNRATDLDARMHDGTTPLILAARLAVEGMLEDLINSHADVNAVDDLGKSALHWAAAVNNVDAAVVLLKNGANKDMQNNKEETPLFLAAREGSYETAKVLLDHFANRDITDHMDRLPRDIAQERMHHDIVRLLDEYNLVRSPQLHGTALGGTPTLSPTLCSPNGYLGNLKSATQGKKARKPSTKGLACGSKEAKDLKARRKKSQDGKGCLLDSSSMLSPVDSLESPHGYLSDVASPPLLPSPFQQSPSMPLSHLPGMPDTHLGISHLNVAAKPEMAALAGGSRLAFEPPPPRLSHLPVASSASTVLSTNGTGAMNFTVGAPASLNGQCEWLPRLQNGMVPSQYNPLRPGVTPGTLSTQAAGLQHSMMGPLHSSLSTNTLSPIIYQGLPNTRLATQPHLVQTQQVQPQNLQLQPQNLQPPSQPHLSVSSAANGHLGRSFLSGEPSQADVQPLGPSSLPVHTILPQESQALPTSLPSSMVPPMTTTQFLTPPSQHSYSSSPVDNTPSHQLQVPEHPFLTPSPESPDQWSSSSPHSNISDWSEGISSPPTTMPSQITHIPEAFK
Chain of Notch1 receptor with L1575P mutation (HPB-ALL cells) (P46531 19-2555 L1593P limits assumed): as the sequence (P46531 19-2555) above, with L1575P counted along it

IC50, Notch1 signaling inhibition co-culture reporter assay [1]: 0.21 nM | Maximal Inhibition (%), Notch1 signaling inhibition co-culture reporter assay [1]: 95.3%
B1: rat 351(R58Y)-mIgG1 (antibody, V domains shown)
VH: EVQLVESGGGLVQPGRSLKVSCLASGFTFSHYGMNWIRQAPGKGLDWVASISRSGSYIYYVDTVKGRFTVSRDIAKNTLYLQMTSLRSEDTALYYCAREGQFGDYFEYWGQGVMVTVSS
VL: DIMLTQSPATLSVTPGERISLSCRASQKISTNLHWYQQKPNESPRILIKYASQTISGIPSRFSGSGSGTDFTLHINTVEPEDFSVYYCQQTNSWPLTFGSGTKLEIK
IC50, MTS viability assay of HPB-ALL leukemia cells [2]: 2.17 nM

IC50, Notch1 signaling inhibition co-culture reporter assay [1]: 0.16 nM | Maximal Inhibition (%), Notch1 signaling inhibition co-culture reporter assay [1]: 95.3%
B2: rat 351(R58Y/V60A)-mIgG1 (antibody, V domains shown)
VH: B1 VH with V61A
VL: B1 VL
IC50, MTS viability assay of HPB-ALL leukemia cells [2]: 2.49 nM

IC50, Notch1 signaling inhibition co-culture reporter assay [1]: 0.11 nM | Maximal Inhibition (%), Notch1 signaling inhibition co-culture reporter assay [1]: 95.3%
B3: rat 351(R58Y/V60R)-mIgG1 (antibody, V domains shown)
VH: B1 VH with V61R
VL: B1 VL

IC50, human Notch1 reporter gene co-culture assay (DLL4-HEK293) [3]: 0.65 nM | Fold difference from rat 438 [4]: 1 fold | EC50 [5]: 2.1 nM | Kd [6]: 4.34 nM | koff [6]: 0.000229 s⁻¹ | kon [6]: 52700 M⁻¹ s⁻¹ | EC50 [7]: 4.4 nM
B4: rat 438-hIgG1 (antibody, V domains shown)
VH: AVQLVESGGGLVQPGRSLKLSCTASGFTFSSFAMAWVRQAPTKGLEWVASISYGGADTYYRDSVKGRFTISRDNAKSSLYLQMDSLRSEDTSTYYCAKDLPYYGYTPFVMDAWGQGTSVTVSS
VL: DIMLTQSPPTLSVTPGETISLSCRASQRINTDLHWYQQKPNESPRVLIKFASQTISGVPSRFSGSGSGTDFTLNINRVEPEDFSVYYCQQSNSWPYTFGAGTKLELK
notes: also called r438-hIgG

EC50 [8]: 0.213 nM | EC50 [9]: 0.172 nM
B5: parental rat 438 (antibody, V domains shown)
VH: B4 VH
VL: B4 VL
notes: Rat monoclonal IgG from a hybridoma

IC50, human Notch1 reporter gene co-culture assay (DLL4-HEK293) [3]: 0.657 nM | Fold difference from rat 438 [4]: 2.21 fold | EC50 [8]: 0.177 nM | EC50 [9]: 0.129 nM | EC50 [5]: 0.6 nM | Kd [6]: 9.65 nM and 9.6 nM | koff [6]: 0.000422 s⁻¹ | kon [6]: 43700 M⁻¹ s⁻¹ | EC50 [7]: 2.4 nM
B6: humanized 438 VH1.1/VL1.1 (antibody, human IgG1, V domains shown)
VH: EVQLVESGGGLVQPGGSLRLSCAASGFTFSSFAMAWVRQAPGKGLEWVASISYGGADTYYRDSVKGRFTISRDNAKNSLYLQMNSLRAEDTAVYYCAKDLPYYGYTPFVMDAWGQGTLVTVSS
VL: DIQLTQSPSSLSASVGDRVTITCRASQRINTDLHWYQQKPGKAPKVLIKFASQTISGVPSRFSGSGSGTDFTLTISSLQPEDFATYYCQQSNSWPYTFGQGTKLEIK

IC50, human Notch1 reporter gene co-culture assay (DLL4-HEK293) [3]: 0.45 nM | IC50, mouse Notch1 reporter gene co-culture assay (DLL4-HEK293) [10]: 0.62 nM | Fold difference from rat 438 [4]: 0.42 fold | EC50 [8]: 0.152 nM | EC50 [9]: 0.0934 nM | EC50 [5]: 2.5 nM | Kd [6]: 1.83 nM | koff [6]: 0.000442 s⁻¹ | kon [6]: 242000 M⁻¹ s⁻¹ | EC50 [7]: 2.8 nM
B7: humanized 438 VH1.1/VL1.3 (antibody, human IgG1, V domains shown)
VH: B6 VH
VL: B6 VL with V46L, K49Y

IC50, human Notch1 reporter gene co-culture assay (DLL4-HEK293) [3]: 0.35 nM | IC50, mouse Notch1 reporter gene co-culture assay (DLL4-HEK293) [10]: 0.5 nM | EC50 [8]: 0.219 nM | EC50 [9]: 0.146 nM | EC50 [5]: 7 nM | EC50 [7]: 3.3 nM
B8: humanized 438 VH1.1/VL1.5 (antibody, human IgG1, V domains shown)
VH: B6 VH
VL: B6 VL with L4M, V46L

IC50, human Notch1 reporter gene co-culture assay (DLL4-HEK293) [3]: 1.19 nM | Fold difference from rat 438 [4]: 1.47 fold | EC50 [8]: 0.305 nM | EC50 [9]: 0.229 nM | EC50 [5]: 0.7 nM | Kd [6]: 6.42 nM and 6.4 nM | koff [6]: 0.000389 s⁻¹ | kon [6]: 60500 M⁻¹ s⁻¹ | EC50 [7]: 4 nM
B9: humanized 438 VH1.0/VL1.1 (antibody, human IgG1, V domains shown)
VH: B6 VH with K98R
VL: B6 VL

IC50, human Notch1 reporter gene co-culture assay (DLL4-HEK293) [3]: 0.46 nM | Fold difference from rat 438 [4]: 5.02 fold | EC50 [8]: 0.296 nM | EC50 [9]: 0.144 nM | EC50 [5]: 1.1 nM | Kd [6]: 21.8 nM | koff [6]: 0.00103 s⁻¹ | kon [6]: 47400 M⁻¹ s⁻¹ | EC50 [7]: 2.8 nM
B10: humanized 438 VH1.1/VL1.0 (antibody, human IgG1, V domains shown)
VH: B6 VH
VL: B6 VL with L4M, V46L, K49Y

IC50, human Notch1 reporter gene co-culture assay (DLL4-HEK293) [3]: 0.38 nM | EC50 [8]: 0.178 nM | EC50 [9]: 0.137 nM | EC50 [5]: 0.4 nM | EC50 [7]: 2.2 nM
B11: humanized 438 VH1.1/VL1.9 (antibody, human IgG1, V domains shown)
VH: B6 VH
VL: B6 VL with Q3M

IC50, human Notch1 reporter gene co-culture assay (DLL4-HEK293) [3]: 1.87 nM | IC50, mouse Notch1 reporter gene co-culture assay (DLL4-HEK293) [10]: 1.37 nM | EC50 [5]: 2.1 nM | EC50 [7]: 11.6 nM
B12: humanized 438 VH1.0/VL1.8 (antibody, human IgG1, V domains shown)
VH: B6 VH with K98R
VL: B6 VL with L4M
